The target of experiment [1] is T1, SALPR (Homo sapiens, UniProt Q9NSD7).
T1 construct: expressed in transfected cells; host or cells: SE302 cells (HEK293 clone carrying a CRE-VIP promoter PLAP reporter), transduced with retrovirus vector pBabeCL(SALPR)IH and selected with hygromycin
T1 sequence (Q9NSD7 1-469): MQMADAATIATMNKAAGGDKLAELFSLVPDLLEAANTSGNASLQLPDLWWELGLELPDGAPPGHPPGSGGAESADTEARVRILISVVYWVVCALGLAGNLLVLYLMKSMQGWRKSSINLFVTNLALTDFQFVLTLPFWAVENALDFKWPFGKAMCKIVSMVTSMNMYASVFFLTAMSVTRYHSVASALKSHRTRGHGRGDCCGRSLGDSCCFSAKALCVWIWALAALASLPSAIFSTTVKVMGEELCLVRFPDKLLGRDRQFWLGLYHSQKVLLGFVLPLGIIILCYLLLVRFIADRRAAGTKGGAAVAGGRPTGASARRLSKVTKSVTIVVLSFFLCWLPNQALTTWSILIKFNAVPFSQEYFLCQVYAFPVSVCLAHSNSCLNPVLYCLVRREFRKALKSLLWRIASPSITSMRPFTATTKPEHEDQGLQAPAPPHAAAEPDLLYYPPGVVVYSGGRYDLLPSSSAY
Put plainly: Suppression of forskolin-increased transcription activity (CRE-PLAP reporter) in SALPR-SE302 cells. Format: cell-based. The settings on record: forskolin 1 μmol/L, 1 day incubation, alkaline phosphatase reporter. The procedure:
On the following day, relaxin-3 (Phoenix Pharmaceuticals) or insulin (Invitrogen) diluted with an assay medium (DMEM supplemented with 0.1% bovine serum albumin) in specified concentrations was added, after which forskolin (Calbiochem) was added to make a final concentration of 1 μmol/L. After 1 day incubation, 15 μl each of the cell supernatant was recovered and then transferred to a 96-well plate for chemiluminescence measurement (Sumitomo Bakelite), 60 μl of buffer solution for assay (280 mmol/L Na2CO3—NaHCO3, 8 mmol/L MgSO4, pH 10) and 70 μl of Lumiphos530 (Lumigen) were added and the reaction was carried out at room temperature for 1 hour, after which chemiluminescence for each well was measured by a fusion plate reader (Perkin Elmer) to assess the transcription activity.

The target of experiment [2] is T1, SALPR. Briefly: Screening for relaxin-3 antagonistic substance using SALPR-SE302 cells (CRE-PLAP reporter). Format: cell-based. The settings on record: 3 μmol/L forskolin, relaxin-3 at 3 nmol/L.
Experiment [3] is described as follows: Amount of feeding after single intracerebroventricular administration. The settings on record: Wistar male rats, single icv, about 50 pmol/rat, 2 hours after administration, vs vehicle, t-test p<0.01. Format: in vivo. The procedure:
Wistar male rats (7 weeks of age; Japan Charles River) were fed feed for experimental animals (MF; Oriental Yeast) to be adapted. The rats (250 to 300 g) received cannulation into the lateral cerebroventricle under anesthesia. Administration experiments were carried out a week or later. Relaxin-3 (60 μg; Phoenix Pharmaceuticals) was dissolved in DMSO and added with an artificial cerebrospinal fluid to make a final concentration of 200 μmol/L. The deposited precipitate was removed by centrifugation and the resulting supernatant was used as a relaxin-3 administration solution. The amount of administration (relaxin-3 concentration in the administration solution) was about 50 pmol/rat when calculated using the standard curve with relaxin-3 in the experimental system shown in Example 7. Rats with guide cannula implantation were divided into 2 groups (6 animals per group) and administered with the relaxin-3 administration solution or a vehicle solution (a solution having the same composition as (2) above without relaxin-3) at a rate of 5 μl/2 minutes using an infusion pump. Immediately after the intracerebroventricular administration of the administration solution, rats were put in a cage where pre-weighed feed was placed and fed ad libitum. The amount of feeding was calculated by measuring the decrease in feed 2 hours later.

A short description of experiment [4]: Spontaneous locomotor activity under chronic intracerebroventricular administration. The class given is in vivo, rat. The settings on record: rats, chronic icv; light phase days 2 and 7, dark phase days 3 and 8. The procedure: Spontaneous locomotor activity was measured using a Versamax system (Accuscan) in the light phase and dark phase on days when significant difference in body weight increasing activity in the rats receiving relaxin-3 administration was recognized.

The nature of experiment [5]: Blood leptin concentration after single intracerebroventricular administration. Format: in vivo, rat. The settings on record: rats, single icv administration, about 3 hours after administration, vs vehicle, t-test p<0.05. The method, then: The above-mentioned rats were anesthetized with Nembutal after the feeding measurement (about 3 hours after administration) and the blood was taken from the abdominal aorta. The blood taken was centrifuged at 1,750×g for 15 minutes and the resulting supernatant was stored at −80° C. Later, the amount of leptin in the supernatant was quantitatively determined by a rat leptin quantification ELISA kit (Amersham Bioscience).

Experiment [6] in a line: Body weight gain and amount of feeding under chronic intracerebroventricular administration. Format: in vivo, rat. The settings on record: Wistar male rats, chronic icv by osmotic pump, 100 μmol/L at 6 μl/day. The method, then:
A relaxin-3 solution was prepared by dissolving relaxin-3 (Peptide Institute, Inc.) in physiological saline at a concentration of 100 μmol/L. A vehicle solution (physiological saline) or the relaxin-3 solution was poured into an osmotic pump (Alzet osmotic pump model 1002 (DURECT); delivering 6 μl/day), a tube and a cannula for administration, after which they were connected together. Wistar male rats (6 weeks of age; Japan Charles River) were fed feed for experimental animals (MF; Oriental Yeast) and adapted to individual cages for 4 days. Under anesthesia, a guide cannula was inserted into the lateral cerebroventricle of these rats (250-270 g) and an osmotic pump was implanted under the skin. The rats had free access to feed and their body weight and feeding were measured every morning. Further, the decrease in the amount of feed per day is shown as the amount of feeding (FIG. 8).

The nature of experiment [7]: Epididymal fat weight, blood leptin and blood insulin after chronic intracerebroventricular administration. Format: in vivo, rat. The settings on record: rats, chronic icv administration, day 14, vs vehicle. The method, then:
After measuring body weight and the amount of feed on the last day of the experiment (day 14), the rats were anesthetized with Nembutal, epididymal fat was taken and the total fat weight was measured (FIG. 9). Further, the blood was taken from the abdominal aorta. The blood was centrifuged at 1,750×g for 15 minutes and the resulting supernatant was stored at −80° C. Later, the amount of leptin in the supernatant was quantitatively determined by a rat leptin measuring kit (L) (IBL) (FIG. 10A). Further, the amount of insulin in the supernatant was quantitatively determined by an ultra sensitive rat insulin measuring kit (Morinaga Institute of Biological Science) (FIG. 10B).

Experiment [8] is described as follows: Body weight gain under chronic intracerebroventricular administration (locomotor study). The settings on record: Wistar male rats (5 weeks of age), chronic icv by osmotic pump, from day 1 after administration. Format: in vivo, rat. The method, then: A relaxin-3 solution was prepared by dissolving relaxin-3 (Peptide Institute, Inc.) in physiological saline at a concentration of 100 μmol/L. A vehicle solution (physiological saline) or the relaxin-3 solution was poured into an osmotic pump (Alzet osmotic pump model 1002 (DURECT), delivering at 6 μ/day), a tube and a cannula for administration, after which they were connected together. Wistar male rats (5 weeks of age; Japan Charles River) were fed feed for experimental animals (MF; Oriental Yeast) and adapted to individual cages for 5 days. Under anesthesia, a guide cannula was inserted into the lateral cerebroventricle of these rats (170-200 g) and an osmotic pump was implanted under the skin. The operation date was set to be day 0. The rats had free access to feed and water and the body weight was measured every morning, except on days for locomotor activity measurement (FIG. 11).

“insulin: related peptide (Invitrogen) used as specificity control in the SALPR reporter test [reference compound]”: the “effect on increase in transcription activity by forskolin” value with SALPR [1] is given as “not affected”.

B1: relaxin-3: polypeptide called relaxin-3 (INSL7) comprising the amino acid sequence of SEQ ID NO: 2; natural ligand of SALPR (protein, listed as Homo sapiens)
chain: MARYMLLLLLAVWVLTGELWPGAEARAAPYGVRLCGREFIRAVIFTCGGSRWRRSDILAHEAMGDTFPDADADEDSLAGELDEAMGSSEWLALTKSPQAFYRGRPSWQGTPGVLRGSRDVLAGLSSSCCKWGCSKSEISSLC
For the molecule B1, the “effect on increase in transcription activity by forskolin” value with SALPR [2] is given as “suppressed the increase in transcription activity by forskolin”; with SALPR [1] it was “suppressed via SALPR activation the increase in transcription activity by forskolin”. Further, the figures for the amount of feeding entry in experiment [3] and in experiment [6] (from day 1) were “significantly increased” and “significant increase in the amount of feeding”, respectively. In addition, in experiment [4], the “spontaneous locomotor activity (total for 90 minutes)” value is “No significant change in locomotor activity”. The blood leptin concentration result in experiment [5] is on record as “significantly increased”. The body weight increase entry in experiment [6] (from day 1 after operation) and in experiment [8] was “significant increase in body weight” throughout. In addition, in experiment [7], the “amount of epididymal fat” value was “significantly increased”. Besides, in experiment [7], the “insulin concentration in blood” value is given as “significantly increased”. Moreover, the “leptin concentration in blood” value in experiment [7] was “significantly increased”.

These data come from patent US7638490B2, “Methods of affecting feeding and weight in mammals by administration of relaxin-3” (priority 2004, dated 2009).
